The target in assay [1] is H3–K27 substrate peptide of the sensor (no NLS). The assay is described as follows: split reporter.
Assay [2] concerns the target H3–K9 substrate peptide of the sensor with C-terminal NLS (NhRluc8.6-Suv39H1–H3–K9-ChRLuc-NLS). The assay is described as follows: split reporter.

For “Pc2 chromodomain in the H3–K27 sensor (domain or fragment)”, the reconstituted RLuc signal (RLU/μg protein) in assay [1] was determined as 3.67e+07. “Suv39H1 chromodomain mutant (W64A, W74A) in the H3–K9 sensor (domain or fragment)” showed a reconstituted RLuc signal in assay [2] of 1.75e+06. “Suv39H1 chromodomain in the H3–K9 sensor (NhRluc8.6-Suv39H1–H3–K9-ChRLuc) (domain or fragment)”: in assay [2], the reconstituted RLuc signal came out at 3.3e+06 and the reconstituted RLuc signal (RLU/μg protein) was 5.26e+06.

Source of the values: paper PMC4303335.
